{"source": "patent US20250011413A1", "about": "(MCMASTER UNIVERSITY, published 2025)", "key": {"[1]": {"target": "T1, PF4/heparin complex (human PF4 complexed with heparin) (human, UniProt P02776 32-101)", "T1 construct": "Multimeric complex of PF4 with heparin (not a protein); In the EIAs: PF4 captured on biotinylated heparin on streptavidin plates; In the SRA: platelets with 0.2 U/mL heparin; also called PF4 and heparin complexes", "T1 sequence": "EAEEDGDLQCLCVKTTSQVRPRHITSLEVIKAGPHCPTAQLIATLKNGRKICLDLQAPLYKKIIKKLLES", "test": "BLI (Octet), biotinylated PF4/heparin on streptavidin sensors, 1:1 model; scFv at 0.25 µg/mL (response near baseline, software limit value)", "experimental": "(§1) The Octet-QK Red 96 (FortéBio, Menlo Park, CA) instrumentation was used to conduct all BLI experiments. A 96-well microtiter plate (black, flat-bottom) was used to hold 200 μL per well of either sample or buffer. Pre-coated streptavidin biosensor tips (FortéBio) were hydrated in phosphate buffered saline (PBS) containing 1% bovine serum albumin (BSA, Sigma-Aldrich) before performing all kinetic assays. Each step was performed at an operating temperature of 23° C. with agitation at 1000 rpm. Streptavidin tips were first equilibrated in PBS+1% BSA to establish a baseline. […] The PF4-coated tips were then dipped into PBS+1% BSA for 13 minutes to re-establish a baseline. Tips were then incubated in an analyte solution containing half-fold dilutions of wildtype scFv (4.0, 2.0, 1.0, 0.5, 0.25 μg/mL in PBS+1% BSA) for 10 minutes to measure association. For mutant scFv association, tips were incubated in an analyte solution containing 200 μL of each mutant and wildtype scFv at a final concentration of 1 μg/mL in PBS+1% BSA. Antibody dissociation steps were performed by dipping sensors in wells containing PBS+1% BSA for 56 minutes. The following negative controls included in these kinetic experiments were also measured: 200 μL of buffer to replace both the antigen and scFv and 200 μL buffer replacing scFv only. Each experiment was performed with PF4 or with PF4/heparin as the immobilized antigen. […]"}, "[2]": {"target": "T2, Human PF4 (CXCL4), biotinylated, without heparin (human, UniProt P02776 32-101, biotinylated with EZ-link-Sulfo-NHS-LC-Biotin (sites not given))", "T2 construct": "Immobilised on streptavidin biosensors for BLI; also called PF4 alone; platelet factor 4", "T2 sequence": "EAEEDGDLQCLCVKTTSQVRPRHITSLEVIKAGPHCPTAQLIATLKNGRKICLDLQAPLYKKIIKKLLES", "test": "BLI (Octet), biotinylated PF4 without heparin on streptavidin sensors, 1:1 model; scFv at 0.25 µg/mL (response near baseline, software limit value)", "experimental": "(§2) All data was analyzed based on a 1:1 homogenous ligand binding model using Octet® User Software version 3.1.\nas §1, with “Antibody dissociation steps were performed by dipping sensors in wells containing PBS+1% BSA for 56 minutes.” left out, “only.” for “only. Each experiment was performed with PF4 or with PF4/heparin as the immobilized antigen.”"}, "[3]": {"target": "T1, PF4/heparin complex (human PF4 …)", "test": "BLI (Octet), biotinylated PF4/heparin on streptavidin sensors, 1:1 model; scFv at 0.5 µg/mL (response near baseline)", "experimental": "as §1"}, "[4]": {"target": "T1, PF4/heparin complex (human PF4 …)", "test": "BLI (Octet), biotinylated PF4/heparin on streptavidin sensors, 1:1 model; scFv at 0.5 µg/mL (response near baseline, software limit value)", "experimental": "as §1"}, "[5]": {"target": "T2, Human PF4 (CXCL4), biotinylated, …", "test": "BLI (Octet), biotinylated PF4 without heparin on streptavidin sensors, 1:1 model; scFv at 4.0 µg/mL", "experimental": "(§3) The Octet-QK Red 96 (FortéBio, Menlo Park, CA) instrumentation was used to conduct all BLI experiments. A 96-well microtiter plate (black, flat-bottom) was used to hold 200 μL per well of either sample or buffer. Pre-coated streptavidin biosensor tips (FortéBio) were hydrated in phosphate buffered saline (PBS) containing 1% bovine serum albumin (BSA, Sigma-Aldrich) before performing all kinetic assays. Each step was performed at an operating temperature of 23° C. with agitation at 1000 rpm. Streptavidin tips were first equilibrated in PBS+1% BSA to establish a baseline. […] The PF4-coated tips were then dipped into PBS+1% BSA for 13 minutes to re-establish a baseline. Tips were then incubated in an analyte solution containing half-fold dilutions of wildtype scFv (4.0, 2.0, 1.0, 0.5, 0.25 μg/mL in PBS+1% BSA) for 10 minutes to measure association. For mutant scFv association, tips were incubated in an analyte solution containing 200 μL of each mutant and wildtype scFv at a final concentration of 1 μg/mL in PBS+1% BSA. Antibody dissociation steps were performed by dipping sensors in wells containing PBS+1% BSA for 56 minutes. The following negative controls included in these kinetic experiments were also measured: 200 μL of buffer to replace both the antigen and scFv and 200 μL buffer replacing scFv only. Each experiment was performed with PF4 or with PF4/heparin as the immobilized antigen.\n(§4) BLI experiments were performed to evaluate binding responses and affinities of wildtype and mutant scFv. Biotinylated PF4 alone or complexed with heparin was immobilized on streptavidin biosensors and used to capture wildtype scFv. Half-fold serial dilutions of wildtype scFv ranging from 0.25 μg/mL to 4 μg/mL were used to determine the optimal concentrations for future experiments PF4 (PF4 FIG. 3; PF4/heparin FIG. 4)."}, "[6]": {"target": "T1, PF4/heparin complex (human PF4 …)", "test": "BLI (Octet), biotinylated PF4/heparin on streptavidin sensors, 1:1 model; scFv at 2.0 µg/mL", "experimental": "as §3, §4"}, "[7]": {"target": "T1, PF4/heparin complex (human PF4 …)", "test": "BLI (Octet), biotinylated PF4/heparin on streptavidin sensors, 1:1 model; scFv at 0.25 µg/mL (response near baseline)", "experimental": "as §1"}, "[8]": {"target": "T2, Human PF4 (CXCL4), biotinylated, …", "test": "BLI (Octet), biotinylated PF4 without heparin on streptavidin sensors, 1:1 model; scFv at 2.0 µg/mL", "experimental": "as §3, §4"}, "[9]": {"target": "T2, Human PF4 (CXCL4), biotinylated, …", "test": "BLI (Octet), biotinylated PF4 without heparin on streptavidin sensors, 1:1 model; scFv at 0.25 µg/mL (response near baseline)", "experimental": "as §2\nas §1, with “Antibody dissociation steps were performed by dipping sensors in wells containing PBS+1% BSA for 56 minutes.” left out, “only.” for “only. Each experiment was performed with PF4 or with PF4/heparin as the immobilized antigen.”"}, "[10]": {"target": "T1, PF4/heparin complex (human PF4 …)", "test": "BLI (Octet), biotinylated PF4/heparin on streptavidin sensors, 1:1 model; scFv at 1.0 µg/mL", "experimental": "as §3, §4"}, "[11]": {"target": "T1, PF4/heparin complex (human PF4 …)", "test": "BLI (Octet), biotinylated PF4/heparin on streptavidin sensors, 1:1 model; scFv at 4.0 µg/mL", "experimental": "as §3, §4"}, "[12]": {"target": "T2, Human PF4 (CXCL4), biotinylated, …", "test": "BLI (Octet), biotinylated PF4 without heparin on streptavidin sensors, 1:1 model; scFv at 1.0 µg/mL", "experimental": "as §3, §4"}}, "data": [{"binder": "Wildtype scFv (KKO-derived single chain variable fragment) (scFv, VL-(G4S)3 linker-VH; expressed in E. coli BL21 from pADL-22c, purified on Ni-NTA as histidine-tagged scFv, about 28 kDa; also called WT; KKO-scFv; not shown: histidine tag from the pADL-22c vector) scFv: DIQMIQSQKFMSTSVGDRVTVTCKASQNVGTNVAWYQQKPGQSPNALIYSASYRYSGVPDRFTGSGSGTDFTLTITNVQSEDLADYFCQQYNSYPLTFGTGTKLDLKGGGGSGGGGSGGGGSVQLQQSGAELVKPGASVKLSCKASGYTFTNYFIYWVKQRPGQGLEWIGEINPRNGDTDFNEKFESRATLTVDKSSSTAYMQLSSLTSEDSAIYYCTRSPYGNNYGFTYWGQGTLVTVSA", "values": [{"measurement": "Kd", "setting": "[1]", "result": "< 0.001", "unit": "nM"}, {"measurement": "Kd", "setting": "[2]", "result": "< 0.001", "unit": "nM"}, {"measurement": "koff", "setting": "[3]", "result": 0.00504, "unit": "s⁻¹"}, {"measurement": "Kd", "setting": "[4]", "result": "< 0.001", "unit": "nM"}, {"measurement": "Kd", "setting": "[5]", "result": 24.1, "unit": "nM"}, {"measurement": "koff", "setting": "[5]", "result": 0.000596, "unit": "s⁻¹"}, {"measurement": "kon", "setting": "[5]", "result": 24800, "unit": "M⁻¹ s⁻¹"}, {"measurement": "Kd", "setting": "[6]", "result": 9.18, "unit": "nM"}, {"measurement": "koff", "setting": "[6]", "result": 0.000571, "unit": "s⁻¹"}, {"measurement": "kon", "setting": "[6]", "result": 62100, "unit": "M⁻¹ s⁻¹"}, {"measurement": "koff", "setting": "[7]", "result": 0.00042, "unit": "s⁻¹"}, {"measurement": "Kd", "setting": "[8]", "result": 9.59, "unit": "nM"}, {"measurement": "koff", "setting": "[8]", "result": 0.000515, "unit": "s⁻¹"}, {"measurement": "kon", "setting": "[8]", "result": 53800, "unit": "M⁻¹ s⁻¹"}, {"measurement": "koff", "setting": "[9]", "result": 0.021, "unit": "s⁻¹"}, {"measurement": "Kd", "setting": "[10]", "result": 0.961, "unit": "nM"}, {"measurement": "koff", "setting": "[10]", "result": 0.000264, "unit": "s⁻¹"}, {"measurement": "kon", "setting": "[10]", "result": 274000, "unit": "M⁻¹ s⁻¹"}, {"measurement": "Kd", "setting": "[11]", "result": 39.3, "unit": "nM"}, {"measurement": "koff", "setting": "[11]", "result": 0.000871, "unit": "s⁻¹"}, {"measurement": "kon", "setting": "[11]", "result": 22200, "unit": "M⁻¹ s⁻¹"}, {"measurement": "Kd", "setting": "[12]", "result": 5.71, "unit": "nM"}, {"measurement": "koff", "setting": "[12]", "result": 0.000853, "unit": "s⁻¹"}, {"measurement": "kon", "setting": "[12]", "result": 149000, "unit": "M⁻¹ s⁻¹"}]}]}
